Reference: patent US20180273635A1 (Zymeworks, published 2018)

B1: variant 9996 (antibody)
heavy: EVQLVESGGGLVQPGGSLRLSCAASGFTFADYTMDWVRQAPGKGLEWVGDVNPNSGGSIYNQRFKGRFTFSVDRSKNTLYLQMNSLRAEDTAVYYCARNLGPSFYFDYWGQGTLVTVSSASTKGPSVFPLAPSSKSTSGGTAALGCLVKDYFPEPVTVSWNSGALTSGVHTFPAVLQSSGLYSLSSVVTVPSSSLGTQTYICNVNHKPSNTKVDKKVEPKSCDKTHTCPPCPAPELLGGPSVFLFPPKPKDTLMISRTPEVTCVVVDVSHEDPEVKFNWYVDGVEVHNAKTKPREEQYNSTYRVVSVLTVLHQDWLNGKEYKCKVSNKALPAPIEKTISKAKGQPREPQVYVYPPSRDELTKNQVSLTCLVKGFYPSDIAVEWESNGQPENNYKTTPPVLDSDGSFALVSKLTVDKSRWQQGNVFSCSVMHEALHNHYTQKSLSLSPG
light: not shown
Fc: not shown
notes: OA format; also called v9996
B2: Variant 14056 (antibody, human IgG1, kappa)
heavy: EVQLVESGGGLVQPGGSLRLSCAASGFTFQDYTMDWVRQAPGKGLEWVADVNPNSGGSIYNQRFKGRFTLSVDRSWNTLYLQMNSLRAEDTAVYYCARNLGPSFYFDYWGQGTLVTVSSASTKGPSVFPLAPSSKSTSGGTAALGCLVKDYFPEPVTVSWNSGALTSGVHTFPAVLQSSGLYSLSSVVTVPSSSLGTQTYICNVNHKPSNTKVDKKVEPKSCDKTHTCPPCPAPELLGGPSVFLFPPKPKDTLMISRTPEVTCVVVDVSHEDPEVKFNWYVDGVEVHNAKTKPREEQYNSTYRVVSVLTVLHQDWLNGKEYKCKVSNKALPAPIEKTISKAKGQPREPQVYVYPPSRDELTKNQVSLTCLVKGFYPSDIAVEWESNGQPENNYKTTPPVLDSDGSFALVSKLTVDKSRWQQGNVFSCSVMHEALHNHYTQKSLSLSPG
light: not shown
chain: not shown
notes: OA (one-armed) format; clones 8775, 8781, 4372; also called v14056
B3: Variant 14063 (antibody, human IgG1, kappa)
heavy: EVQLVESGGGLVQPGGSLRLSCAASGFTFQDYTMDWVRQAPGKGLEWVADVNPNSGYSIYNQRFKGRFTLSVDRSKNTLYLQMNSLRAEDTAVYYCARNLGPSFYFDYWGQGTLVTVSSASTKGPSVFPLAPSSKSTSGGTAALGCLVKDYFPEPVTVSWNSGALTSGVHTFPAVLQSSGLYSLSSVVTVPSSSLGTQTYICNVNHKPSNTKVDKKVEPKSCDKTHTCPPCPAPELLGGPSVFLFPPKPKDTLMISRTPEVTCVVVDVSHEDPEVKFNWYVDGVEVHNAKTKPREEQYNSTYRVVSVLTVLHQDWLNGKEYKCKVSNKALPAPIEKTISKAKGQPREPQVYVYPPSRDELTKNQVSLTCLVKGFYPSDIAVEWESNGQPENNYKTTPPVLDSDGSFALVSKLTVDKSRWQQGNVFSCSVMHEALHNHYTQKSLSLSPG
light: not shown
chain: not shown
notes: OA (one-armed) format; clones 8788, 8781, 4372; also called v14063
B4: Variant 14057 (antibody, human IgG1, kappa)
heavy: EVQLVESGGGLVQPGGSLRLSCAASGFTFTDYTMDWVRQAPGKGLEWVADVNPNSGGSIYNQRFKGRFTLSVDRSWNTLYLQMNSLRAEDTAVYYCARNLGPWFYFDYWGQGTLVTVSSASTKGPSVFPLAPSSKSTSGGTAALGCLVKDYFPEPVTVSWNSGALTSGVHTFPAVLQSSGLYSLSSVVTVPSSSLGTQTYICNVNHKPSNTKVDKKVEPKSCDKTHTCPPCPAPELLGGPSVFLFPPKPKDTLMISRTPEVTCVVVDVSHEDPEVKFNWYVDGVEVHNAKTKPREEQYNSTYRVVSVLTVLHQDWLNGKEYKCKVSNKALPAPIEKTISKAKGQPREPQVYVYPPSRDELTKNQVSLTCLVKGFYPSDIAVEWESNGQPENNYKTTPPVLDSDGSFALVSKLTVDKSRWQQGNVFSCSVMHEALHNHYTQKSLSLSPG
light: not shown
chain: not shown
notes: OA (one-armed) format; clones 8774, 8781, 4372; also called v14057
B5: variant 12478 (antibody, human IgG1, kappa)
heavy: EVQLVESGGGLVQPGGSLRLSCAASGFTFYDYTMDWVRQAPGKGLEWVADVNPNSGGSIYNQRFKGRFTLSVDRSKNTLYLQMNSLRAEDTAVYYCARNLGPSFYFDYWGQGTLVTVSSASTKGPSVFPLAPSSKSTSGGTAALGCLVKDYFPEPVTVSWNSGALTSGVHTFPAVLQSSGLYSLSSVVTVPSSSLGTQTYICNVNHKPSNTKVDKKVEPKSCDKTHTCPPCPAPELLGGPSVFLFPPKPKDTLMISRTPEVTCVVVDVSHEDPEVKFNWYVDGVEVHNAKTKPREEQYNSTYRVVSVLTVLHQDWLNGKEYKCKVSNKALPAPIEKTISKAKGQPREPQVYVYPPSRDELTKNQVSLTCLVKGFYPSDIAVEWESNGQPENNYKTTPPVLDSDGSFALVSKLTVDKSRWQQGNVFSCSVMHEALHNHYTQKSLSLSPG
light: not shown
chain: not shown
notes: OA pertuzumab variant, HC T30Y (Kabat); also called v12478
B6: Variant 14062 (antibody, human IgG1, kappa)
heavy: EVQLVESGGGLVQPGGSLRLSCAASGFTFQDYTMDWVRQAPGKGLEWVADVNPNSGYSIYNQRFKGRFTLSVDRSKNTLYLQMNSLRAEDTAVYYCARNLGPWFYFDYWGQGTLVTVSSASTKGPSVFPLAPSSKSTSGGTAALGCLVKDYFPEPVTVSWNSGALTSGVHTFPAVLQSSGLYSLSSVVTVPSSSLGTQTYICNVNHKPSNTKVDKKVEPKSCDKTHTCPPCPAPELLGGPSVFLFPPKPKDTLMISRTPEVTCVVVDVSHEDPEVKFNWYVDGVEVHNAKTKPREEQYNSTYRVVSVLTVLHQDWLNGKEYKCKVSNKALPAPIEKTISKAKGQPREPQVYVYPPSRDELTKNQVSLTCLVKGFYPSDIAVEWESNGQPENNYKTTPPVLDSDGSFALVSKLTVDKSRWQQGNVFSCSVMHEALHNHYTQKSLSLSPG
light: not shown
chain: not shown
notes: OA (one-armed) format; clones 8789, 7919, 4372; also called v14062
B7: Variant 14060 (antibody, human IgG1, kappa)
heavy: EVQLVESGGGLVQPGGSLRLSCAASGFTFQDYTMDWVRQAPGKGLEWVADVNPNSGGSIYNQRFKGRFTLSVDRSKNTLYLQMNSLRAEDTAVYYCARNLGPWFYFDYWGQGTLVTVSSASTKGPSVFPLAPSSKSTSGGTAALGCLVKDYFPEPVTVSWNSGALTSGVHTFPAVLQSSGLYSLSSVVTVPSSSLGTQTYICNVNHKPSNTKVDKKVEPKSCDKTHTCPPCPAPELLGGPSVFLFPPKPKDTLMISRTPEVTCVVVDVSHEDPEVKFNWYVDGVEVHNAKTKPREEQYNSTYRVVSVLTVLHQDWLNGKEYKCKVSNKALPAPIEKTISKAKGQPREPQVYVYPPSRDELTKNQVSLTCLVKGFYPSDIAVEWESNGQPENNYKTTPPVLDSDGSFALVSKLTVDKSRWQQGNVFSCSVMHEALHNHYTQKSLSLSPG
light: not shown
chain: not shown
notes: OA (one-armed) format; clones 8780, 8781, 4372; also called v14060
B8: Variant 14059 (antibody, human IgG1, kappa)
heavy: EVQLVESGGGLVQPGGSLRLSCAASGFTFYDYTMDWVRQAPGKGLEWVADVNPNSGGSIYNQRFKGRFTLSVDRSWNTLYLQMNSLRAEDTAVYYCARNLGPSFYFDYWGQGTLVTVSSASTKGPSVFPLAPSSKSTSGGTAALGCLVKDYFPEPVTVSWNSGALTSGVHTFPAVLQSSGLYSLSSVVTVPSSSLGTQTYICNVNHKPSNTKVDKKVEPKSCDKTHTCPPCPAPELLGGPSVFLFPPKPKDTLMISRTPEVTCVVVDVSHEDPEVKFNWYVDGVEVHNAKTKPREEQYNSTYRVVSVLTVLHQDWLNGKEYKCKVSNKALPAPIEKTISKAKGQPREPQVYVYPPSRDELTKNQVSLTCLVKGFYPSDIAVEWESNGQPENNYKTTPPVLDSDGSFALVSKLTVDKSRWQQGNVFSCSVMHEALHNHYTQKSLSLSPG
light: not shown
chain: not shown
notes: OA (one-armed) format; clones 8776, 8781, 4372; also called v14059
B9: Variant 14058 (antibody, human IgG1, kappa)
heavy: EVQLVESGGGLVQPGGSLRLSCAASGFTFQDYTMDWVRQAPGKGLEWVADVNPNSGGSIYNQRFKGRFTLSVDRSWNTLYLQMNSLRAEDTAVYYCARNLGPWFYFDYWGQGTLVTVSSASTKGPSVFPLAPSSKSTSGGTAALGCLVKDYFPEPVTVSWNSGALTSGVHTFPAVLQSSGLYSLSSVVTVPSSSLGTQTYICNVNHKPSNTKVDKKVEPKSCDKTHTCPPCPAPELLGGPSVFLFPPKPKDTLMISRTPEVTCVVVDVSHEDPEVKFNWYVDGVEVHNAKTKPREEQYNSTYRVVSVLTVLHQDWLNGKEYKCKVSNKALPAPIEKTISKAKGQPREPQVYVYPPSRDELTKNQVSLTCLVKGFYPSDIAVEWESNGQPENNYKTTPPVLDSDGSFALVSKLTVDKSRWQQGNVFSCSVMHEALHNHYTQKSLSLSPG
light: not shown
chain: not shown
notes: OA (one-armed) format; clones 8784, 7917, 4372; also called v14058
B10: variant 12479 (antibody, human IgG1, kappa)
heavy: EVQLVESGGGLVQPGGSLRLSCAASGFTFNDYTMDWVRQAPGKGLEWVADVNPNSGGSIYNQRFKGRFTLSVDRSKNTLYLQMNSLRAEDTAVYYCARNLGPSFYFDYWGQGTLVTVSSASTKGPSVFPLAPSSKSTSGGTAALGCLVKDYFPEPVTVSWNSGALTSGVHTFPAVLQSSGLYSLSSVVTVPSSSLGTQTYICNVNHKPSNTKVDKKVEPKSCDKTHTCPPCPAPELLGGPSVFLFPPKPKDTLMISRTPEVTCVVVDVSHEDPEVKFNWYVDGVEVHNAKTKPREEQYNSTYRVVSVLTVLHQDWLNGKEYKCKVSNKALPAPIEKTISKAKGQPREPQVYVYPPSRDELTKNQVSLTCLVKGFYPSDIAVEWESNGQPENNYKTTPPVLDSDGSFALVSKLTVDKSRWQQGNVFSCSVMHEALHNHYTQKSLSLSPG
light: not shown
chain: not shown
notes: OA pertuzumab variant, HC T30N (Kabat); also called v12479

Legend:
[1] = target: T1, Recombinant human HER2 (human, UniProt P04626 23-652); test: SPR, variant captured on anti-human Fc, HER2 flowed, 25 C, post-SEC
T1 construct: extracellular domain; analyte of the SPR assays; also called HER2 ECD; ECD2 of HER2
Protocol: (§1) The affinity towards HER2 ECD of the samples was measured by SPR on a Biacore T200 as follows. Between 2000 and 4000 RU of anti-human Fc injected at concentration between 5 and 10 μg/ml was immobilized on a CM5 chip using standard amine coupling. Antigen-binding constructs were captured on the anti-human Fc (injected at concentration at 0.51 microg/mL in PBST, 1 min at 10 microl/min) at response levels ranging from 120-270 RU. […] HER2 dilutions were analyzed in duplicates. Sensograms were fit globally to a 1: 1 Langmuir binding model, using the software provided with the Biacore T200. All experiments were conducted at 25° C.
(§2) The affinity of antigen-binding constructs in OA format was determined by SPR following protein A purification. […] Antigen-binding constructs in FSA format were purified by protein A affinity and SEC prior to assessment of affinity by SPR.

[2] = target: T1, Recombinant human HER2; test: SPR, variant captured on anti-human Fc, HER2 flowed, 25 C, pre-SEC;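 note: HER2 extracellular domain binding on Biacore T200, CM5 chip with amine-coupled anti-human Fc, duplicate antigen dilutions, global 1:1 Langmuir fit, measured after protein A purification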
Protocol: as §1, §2

[3] = target: T2, Recombinant human HER2 (human, UniProt P04626 23-652); test: calculated from the SPR Ka ratio to WT v10013;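 note: SPR at 25 °C with constructs captured on an anti-human Fc chip and HER2 extracellular domain as analyte, kinetics fitted to a 1:1 Langmuir model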
T2 construct: extracellular domain; Analyte of the SPR assays; also called HER2 ECD; ECD2 of HER2

[4] = target: T2, Recombinant human HER2; test: SPR, Biacore T200, 25 C; variant captured on anti-human Fc, HER2 flowed;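 note: HER2 extracellular domain analyte run as duplicate dilutions over amine-coupled anti-Fc on a CM5 chip, rates from global sensorgram fitting with a 1:1 Langmuir model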
[5] = target: T2, Recombinant human HER2; test: SPR, 25 C; Ka ratio to WT v10013;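 note: constructs captured via anti-human Fc on CM5 chip, HER2 ECD as analyte in duplicate dilutions, sensorgrams globally fit to 1:1 Langmuir model on Biacore T200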
[6] = target: T1, Recombinant human HER2; test: SPR, pre-SEC; ratio to WT v10013;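 note: SPR on Biacore T200 at 25 °C, constructs captured via anti-human Fc on CM5 chip, HER2 ECD as analyte, 1:1 Langmuir global fit, after protein A purification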
Protocol: as §1, §2

[7] = target: T1, Recombinant human HER2; test: SPR, post-SEC; ratio to WT v10013
Protocol: as §1, §2

| Binder | Kd [1] | Kd [2] | ΔΔG [3] | Kd [4] | koff [4] | kon [4] | Ka, mut/Ka, WT [5] | Ka, mut/Ka, WT [6] | Ka, mut/Ka, WT [7] |
| --- | --- | --- | --- | --- | --- | --- | --- | --- | --- |
| B1 | 1.9 nM | 2 nM | – | – | – | – | – | – | – |
| B2 | – | – | -3 kcal/mol | ~0.11 nM | ~8.4e-06 s⁻¹ | 76000 M⁻¹ s⁻¹ | ~148 fold | – | – |
| B3 | – | – | -2.9 kcal/mol | ~0.13 nM | ~8.3e-06 s⁻¹ | 63000 M⁻¹ s⁻¹ | ~124 fold | – | – |
| B4 | – | – | -0.9 kcal/mol | 3.6 nM | 0.00045 s⁻¹ | 120000 M⁻¹ s⁻¹ | 5 fold | – | – |
| B5 | 5.8 nM | 5.6 nM | – | – | – | – | – | 3.5 | 3.6 |
| B6 | – | – | -1.9 kcal/mol | 0.63 nM | 3.5e-05 s⁻¹ | 56000 M⁻¹ s⁻¹ | 26 fold | – | – |
| B7 | – | – | -0.3 kcal/mol | 9.2 nM | 0.0013 s⁻¹ | 140000 M⁻¹ s⁻¹ | 2 fold | – | – |
| B8 | – | – | -3.3 kcal/mol | ~0.061 nM | ~5.3e-06 s⁻¹ | 88000 M⁻¹ s⁻¹ | ~269 fold | – | – |
| B9 | – | – | -0.9 kcal/mol | 3.9 nM | 0.00092 s⁻¹ | 240000 M⁻¹ s⁻¹ | 4 fold | – | – |
| B10 | 4.4 nM | 5 nM | – | – | – | – | – | 3.9 | 4.7 |
